Source: US20100145008A1 (published 2010)

B1: Lys_B3 (designed binder)
chain: GSVKVKFDLCGEEKEVDTSKIVYVARDGKTVLFMYDDNGKSGRGEVSEKDAPKELLDMLARAEREKKL
B2: Lys_H4 (designed binder)
chain: GSVKVKFFWNGEEKEVDTSKIVWVKRAGKCVLFIYDDNGKNGYGDVTEKDAPKELLDMLARAEREKKL
B3: Lys_H8 (designed binder)
chain: GSVKVKFVMCGEEKEVDTSKIITVKRTGKEVDFLYDDNGKNGYGTVYEKDAPKELLDMLARAEREKKL

Target: T1, lysozyme (Gallus gallus (Chicken), UniProt P00698 19-147)
T1 construct: also called Lysozyme (14.3 kDa)
Assay: Biacore, preliminary data

T1 sequence (P00698 19-147 limits assumed, form in doubt): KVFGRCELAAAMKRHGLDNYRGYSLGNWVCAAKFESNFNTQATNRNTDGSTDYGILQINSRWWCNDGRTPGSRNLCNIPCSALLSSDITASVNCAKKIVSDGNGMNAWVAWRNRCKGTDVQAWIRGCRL

Question: Which Kd does the source give for B1 here?
Answer: ~15 nM

Question: B2 was tested. Which Kd did it give?
Answer: ~3 nM

Question: How did the Kd turn out when B3 was run?
Answer: ~25 nM
